Test results taken from PMC9271601.

Target: H7N9 A/Shanghai/2/2013 hemagglutinin trimer, wild type (influenza A virus A/Shanghai/02/2013 (H7N9)) (UniProt R4NN21)
Experiment: cryo-EM structure

## H7N9 A/Shanghai/2/2013 hemagglutinin trimer, wild type (from UniProt R4NN21) (natural protein)
  stoichiometry N: 3
